Test [1] deals with T1, human CD33-His (extracellular domain Asp 18-His 259) (human, UniProt P20138 18-259).
T1 construct: range 18-259; bought protein; also called hCD33-his; human CD33 protein; not shown: His tag
In words: competitive ELISA vs coated S006-NB147-25 3ug/mL; soluble 25ug/ml. A general note: In an ELISA, binding on a coated surface is turned into a signal by an enzyme label.

Test [2] addresses T1, human CD33-His (extracellular domain …). As to the kind of experiment: competitive ELISA vs coated S006-NB146-150 3ug/mL; soluble 25ug/ml.
The next test addresses T2, human CD33-C2-his (human, UniProt P20138 136-260).
T2 construct: expressed in HEK293E; also called hCD33-C2-his; human CD33 protein C2-domain; not shown: His tag
In words: ELISA on coated human CD33-C2-his. From the text: Plates were coated with human CD33-V-his (membrane distal end) and human CD33-C2-his (membrane proximal end), respectively, according to the ELISA method in Example 8. The VHH humanized antibodies were classified based on the membrane distal end and the membrane proximal end, as shown in FIGS. 20A-20J and Table 44, which allowed the classification of the VHH humanized antibodies into the following classes: […]

Test [3] deals with T1, human CD33-His (extracellular domain …). As to the kind of experiment: competitive ELISA vs coated S006-NB147-220 3ug/mL; soluble 25ug/ml.
For test [4] the target is unchanged. In words: ELISA, antigen coated. How it is done:
(§1) In order to assay the binding activity of VHH-Fc to human CD33 protein, a human CD33-his protein (purchased from ACROBiosystems, Cat. No. CD3-H5226) was diluted with PBS to make a final concentration of 2 μg/mL, and then added into a 96-well ELISA plate at 100 μL/well. The plate was sealed with a plastic film and incubated at 4° C. overnight, washed twice with PBS the next day, and a blocking solution [PBS+2% (w/w) BSA] was added for blocking at room temperature for 2 h. The blocking solution was discarded, and VHH-Fc antibody or negative control antibody serially diluted from 100 nM was added at 50 μL/well. After incubation at 37° C. for 2 h, the plate was washed 3 times with PBS. A secondary antibody labeled with HRP (horseradish peroxidase) (purchased from Sigma, Cat. No. A0170) was added. After incubation for 1 h at 37° C., the plate was washed 5 times with PBS. A TMB substrate was added at 50 μL/well. After incubation at room temperature for 10 min, a stop solution (1.0 N HCl) was added at 50 μL/well. The OD450 nm values were read on an ELISA plate reader (Multimode Plate Reader, EnSight, purchased from Perkin Elmer). The assay results for the binding of the VHH-Fc to hCD33-his by ELISA are shown in FIGS. 7A and 7B and Tables 11 and 12. […] The IgG control was hIgG1, and the data in the table are OD450 nm values.

A further test addresses T3, monkey CD33-His protein (monkey).
T3 construct: also called monkey CD33 protein
As to the kind of experiment: ELISA on coated monkey CD33-his.

The target of test [5] is T4, human CD33-his protein (human, UniProt P20138 18-259).
T4 construct: range 18-259; bought protein; also called hCD33-his; recombinant human CD33-his; not shown: His tag
As to the kind of experiment: competition ELISA, coated human CD33-his, vs Biotin-C33B904 at EC80; antibody 62.50 nM. How it is done:
as §1, with “The” for “In order to assay the binding activity of VHH-Fc to human CD33 protein, a human CD33-his protein (purchased from ACROBiosystems, Cat. No. CD3-H5226) was diluted with PBS to make a final concentration of 2 μg/mL, and then added into a 96-well ELISA plate at 100 μL/well. The”
(§2) ELISA plates were coated with 2 μg/mL human CD33-his protein according to the method in Example 5.1; the Biotin-C331B904 antibody was subjected to a gradient dilution from 15 μg/mL, and EC80 values (0.18 μg/mL) were calculated. […] OD_{450 nm} values were read using an ELISA plate reader (Insight, purchased from PerkinElmer). […]

Test [6] concerns the target T4, human CD33-his protein. In words: competition ELISA, coated human CD33-his, vs Biotin-C33B904 at EC80; antibody 1.95 nM. Here is the method:
ELISA plates were coated with 2 μg/mL human CD33-his protein according to the method in Example 5.1; the Biotin-C331B904 antibody was subjected to a gradient dilution from 15 μg/mL, and EC80 values (0.18 μg/mL) were calculated. ELISA plates were coated with 2 μg/mL human CD33-his protein; starting from 40 μg/mL, the VHH antibodies to be tested were diluted in a 1:2 dilution ratio to obtain seven concentrations and added to the ELISA plates, and then Biotin-C331904 antibodies with the EC80 concentrations were added for incubation for 2 h. The plates were washed 5 times with PBS and then […] (purchased from Sigma, Cat. No. S2438) were added for incubation for 1 h, and the plates were washed 5 times. A TMB substrate was added at 50 μL/well and incubated at room temperature for 10 min, then a stop solution (1.0 M HCl) was added at 50 μL/well. OD_{450 nm} values were read using an ELISA plate reader (Insight, purchased from PerkinElmer). Then, analysis was performed by software (GraphPad Prism8), and data were fitted for curve plotting. The results are shown in FIGS. 13A-13B and Tables 28 and 29.

For test [7], the target named is T4, human CD33-his protein. As to the kind of experiment: competition ELISA, coated human CD33-his, vs Biotin-C33B904 at EC80; antibody 3.91 nM. Here is the method: as §1, with “The” for “In order to assay the binding activity of VHH-Fc to human CD33 protein, a human CD33-his protein (purchased from ACROBiosystems, Cat. No. CD3-H5226) was diluted with PBS to make a final concentration of 2 μg/mL, and then added into a 96-well ELISA plate at 100 μL/well. The”
as §2

In test [8] the target is T4, human CD33-his protein. As to the kind of experiment: competition ELISA, coated human CD33-his, vs Biotin-C33B904 at EC80; antibody 0.49 nM. Here is the method: as §1, with “The” for “In order to assay the binding activity of VHH-Fc to human CD33 protein, a human CD33-his protein (purchased from ACROBiosystems, Cat. No. CD3-H5226) was diluted with PBS to make a final concentration of 2 μg/mL, and then added into a 96-well ELISA plate at 100 μL/well. The”
as §2

The source of these data is US20240124575A1 (SIMCERE ZAIMING PHARMACEUTICAL, published 2024).

For orientation: EC50 (read off the curve) means the concentration needed to bring the measured effect to its halfway point.

T1 sequence (P20138 18-259 limits assumed): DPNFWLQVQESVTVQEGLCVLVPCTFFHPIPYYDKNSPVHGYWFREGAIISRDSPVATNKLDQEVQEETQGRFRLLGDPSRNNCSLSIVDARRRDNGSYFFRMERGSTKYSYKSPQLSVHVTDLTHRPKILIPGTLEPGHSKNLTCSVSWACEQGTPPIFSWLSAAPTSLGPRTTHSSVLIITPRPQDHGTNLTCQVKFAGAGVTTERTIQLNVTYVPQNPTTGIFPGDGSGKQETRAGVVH
T4 sequence (P20138 18-259 limits assumed): as above
T2 sequence (P20138 other isoform, or with tags, fused parts or gaps limits assumed): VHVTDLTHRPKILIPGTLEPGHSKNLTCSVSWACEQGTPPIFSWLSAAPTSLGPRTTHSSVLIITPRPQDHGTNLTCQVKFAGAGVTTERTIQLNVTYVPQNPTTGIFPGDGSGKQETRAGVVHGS

B1: C33B904 hIgG1 (antibody, V domains shown)
VH: EVQLVESGGGLVQPGRSLRLSCAASGFTFDDYAMHWVRQAPGKGLEWVSGIGWSGGSIVYADSVKGRFTISRDNAKNSLYLQMNSLRAEDTALYYCAKDSPYGDFFDYWGQGTLVTVSS
VL: DIVMTQSPDSLAVSLGERATINCKSSQTVFYSSNNKNYLAWYQQKPGQPPKLLISWASTRKSGVPDRFSGSGSGTDFTLTVSSLQAEDVAVYYCQHYYSTPYTFGQGTKLEIKR
notes: intact human IgG1; variable regions from US20190382481A1; also called C33B3904; C331B904
In turn, B1 registered an inhibition rate in [1] of 99%. Also, the inhibition rate in test [2] turned out to be 100%. Besides, the “EC50 (read off the curve)” value in the test with human CD33-C2-his was roughly 0.2 nM. In test [3], the inhibition rate came out at 98%. In [4], the “OD450 at 0.0001 nM” value was 0.04 OD450, the “OD450 at 0.001 nM” value was found to be 0.06 OD450, the “OD450 at 0.01 nM” value came out at 0.08 OD450 and the “OD450 at 0.1 nM” value is 0.28 OD450. In [4], the “OD450 at 1 nM” value is 1.39 OD450, the “OD450 at 10 nM” value came to 2.6 OD450 and the “OD450 at 100 nM” value was determined as 2.96 OD450. The 50% effective concentration (EC50 (read off the curve)) with monkey CD33-His protein was roughly 0.2 nM.

B2: C33B904 (antibody, human IgG1, kappa, V domains shown)
VH: B1 VH
VL: B1 VL
notes: control antibody, intact human IgG1 form; variable regions from US20190382481A1; also called C33B904 hIgG1; C331B904
On to B2, for which the “OD450 (Biotin-C33B904 signal)” value with human CD33-his protein [5] stood at 0.24; in the test with human CD33-his protein [6] it was 2.02; in the test with human CD33-his protein [7], 2.25; in the test with human CD33-his protein [8], 2.44.
